Here are results for 1 substance from patent publication US20050123549A1.

For test [1], the target named is Muc1 on DS6 negative & CM1 positive cell lines (KLE, OVCAR3, SKOV3), without the CA6 epitope (human) (UniProt P15941). Nature of the test: flow cytometry on OVCAR3 cells.
Test [2] has as its target Muc1 mucin carrying the CA6 sialoglycotope (human) (UniProt P15941). In words: flow cytometry on BT549 cells. In general terms: Flow cytometry measures light scatter and fluorescence of single cells or particles in a stream.
In test [3] the target is Muc1 on DS6 negative & CM1 positive cell lines (KLE, OVCAR3, SKOV3), without the CA6 epitope (human) (UniProt P15941). In words: flow cytometry on KLE cells.
Test [4] deals with Muc1 mucin carrying the CA6 sialoglycotope (human) (UniProt P15941). Nature of the test: flow cytometry on BT549 cells, apparent Kd.
The target is the same in test [5]. Nature of the test: flow cytometry on MCF7 cells.
The target of test [6] is Muc1 on DS6 negative & CM1 positive cell lines (KLE, OVCAR3, SKOV3), without the CA6 epitope (human) (UniProt P15941). In words: flow cytometry on SKOV3 cells.
For test [7], the target named is Muc1 mucin carrying the CA6 sialoglycotope (human) (UniProt P15941). Nature of the test: flow cytometry on KB cells.
The target is the same in test [8]. Nature of the test: flow cytometry on CaOV3 cells.
The target of test [9] is Muc1 on DS6 negative & CM1 positive cell lines (KLE, OVCAR3, SKOV3), without the CA6 epitope (human) (UniProt P15941). In words: flow cytometry on OVCAR3 cells, apparent Kd.
Test [10] has the same target. In words: flow cytometry on KLE cells, apparent Kd.
In test [11] the target is Muc1 mucin carrying the CA6 sialoglycotope (human) (UniProt P15941). Nature of the test: flow cytometry on HeLa cells.
For test [12] the target is unchanged. Nature of the test: flow cytometry on HeLa cells, apparent Kd.
The target in test [13] is Muc1 on DS6 negative & CM1 positive cell lines (KLE, OVCAR3, SKOV3), without the CA6 epitope (human) (UniProt P15941). In words: flow cytometry on SKOV3 cells, apparent Kd.
In test [14] the target is Muc1 mucin carrying the CA6 sialoglycotope (human) (UniProt P15941). In words: flow cytometry on MCF7 cells, apparent Kd.
Test [15] shares this target. Nature of the test: flow cytometry on CaOV3 cells, apparent Kd.
For test [16] the target is unchanged. In words: flow cytometry on KB cells, apparent Kd.

Turning to CM1 antibody (Muc1 VNTR antibody), the MMF (maximum mean relative fluorescence) in test [1] was found to be 192; in test [2], 188; in [3], 562; in [5], 1020; in test [6] it was 49.4; in [7], 338. Also, the MMF (maximum mean relative fluorescence) in [8] came out at 1030; in test [11], 335. For the same substance, the Kd in [4] is 6.06 nM; in [9], 5.95 nM; in test [10], 8.16 nM; in [12], 2.91 nM; in test [13] it was 6.25 nM; in test [14], 8.69 nM. Besides, the Kd in test [15] was found to be 7.48 nM; in [16] it was 5.34 nM.
